{
  "source": "patent US20260152559A1",
  "about": "(Janssen / Centocor, published 2026)",
  "data": [
    {"biological_target": "hK2 on target cells (VCaP, LNCaP/hK2 and other hK2 positive tumor cells) (human, UniProt P20151 19-261)", "sequence (P20151 19-261)": "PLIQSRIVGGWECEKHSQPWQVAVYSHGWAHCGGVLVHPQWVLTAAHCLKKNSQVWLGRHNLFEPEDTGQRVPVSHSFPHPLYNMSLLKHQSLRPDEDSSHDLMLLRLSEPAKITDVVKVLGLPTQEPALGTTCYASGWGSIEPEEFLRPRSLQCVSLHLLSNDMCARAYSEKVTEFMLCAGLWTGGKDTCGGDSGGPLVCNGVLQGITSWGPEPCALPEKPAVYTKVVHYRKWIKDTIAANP", "test": "cell-based or functional assay", "units": {"tumor cell growth inhibition (TGI) of VCaP cells, IncuCyte killing assay, 96 hours, E:T 1:1 or 0.5:1": "%"}, "values": [
      {"binder": "CAR19 (KL2B359_HL) (other) QVQLQESGPGLVKPSQTLSLTCTVSGNSITSDYAWNWIRQFPGKRLEWIGYISYSGSTTYNPSLKSRVTISRDTSKNQFSLKLSSVTAADTAVYYCATGYYYGSGFWGQGTLVTVSSGGSEGKSSGSGSESKSTGGSEIVLTQSPATLSLSPGERATLSCRASESVEYFGTSLMHWYQQKPGQPPRLLIYAASNVESGIPARFSGSGSGTDFTLTISSVEPEDFAVYFCQQTRKVPYTFGGGTKVEIKTSTPAPRPPTPAPTIASQPLSLRPEACRPAAGGAVHTRGLDFACDIYIWAPLAGTCGVLLLSLVITLYCKRGRKKLLYIFKQPFMRPVQTTQEEDGCSCRFPEEEEGGCELRVKFSRSADAPAYKQGQNQLYNELNLGRREEYDVLDKRRGRDPEMGGKPRRKNPQEGLYNELQKDKMAEAYSEIGMKGERRRGKGHDGLYQGLSTATKDTYDALHMQALPPR", "tumor cell growth inhibition (TGI) of VCaP cells, IncuCyte killing assay, 96 hours, E:T 1:1 or 0.5:1": "~100"},
      {"binder": "CAR17 (KL2B413_HL) (other) EVQLVESGGGLVQPGGSLRLSCAASGFTFSSYWMTWVRQAPGKGLEWVANIKQDGSERYYVDSVKGRFTISRDNAKNSLYLQMNSLRAEDTAVYYCARDQNYDILTGHYGMDVWGQGTTVTVSSGGSEGKSSGSGSESKSTGGSEIVLTQSPSFLSASVGDRVTITCRASQGISSYLSWYQQKPGKAPKLLIYATSTLQSGVPSRFSGSGSGTEFTLTISSLQPEDFATYYCQQLNSYPRTFGQGTKVEIKTSTPAPRPPTPAPTIASQPLSLRPEACRPAAGGAVHTRGLDFACDIYIWAPLAGTCGVLLLSLVITLYCKRGRKKLLYIFKQPFMRPVQTTQEEDGCSCRFPEEEEGGCELRVKFSRSADAPAYKQGQNQLYNELNLGRREEYDVLDKRRGRDPEMGGKPRRKNPQEGLYNELQKDKMAEAYSEIGMKGERRRGKGHDGLYQGLSTATKDTYDALHMQALPPR", "tumor cell growth inhibition (TGI) of VCaP cells, IncuCyte killing assay, 96 hours, E:T 1:1 or 0.5:1": "~100"}
    ]},
    {"biological_target": "T1, kallikrein related peptidase 2 (hK2), soluble (human, UniProt P20151 19-261, biotin label in the CAR staining assays (site not stated))", "T1 construct": "also called KLK2; human KLK2 protein", "T1 sequence (P20151 19-261)": "as the sequence (P20151 19-261) above", "test": "SPR; bispecific antibody captured on anti-Fc sensor chip, soluble hK2 injected; 1:1 Langmuir fit", "units": {"Kd": "nM"}, "values": [
      {"binder": "KL2B467 Fab (binding arm listed in Table 39 for hK2/CD3 bispecific antibodies) (bispecific antibody, V domains shown) VH: QVQLVESGGGVVQPGRSLRLSCAASGFTFSYYGMHWVRQAPGKGLEWVAFISYDGSNKYYADSVKGRFTISRDNSKNTLYLQMNSLRAEDTAVYYCAHLPYSGSYWAFDYWGQGTQVTVSS VL: QSVLTQPPSVSVAPGQTASITCGGDNIGSKSVHWYQQKPGQAPVLVVYDNSDRPSGIPERFSGSNSGTTATLTISRVEAGDEADYYCQVWDSSSDHPVVFGGGTKVTV", "Kd": 0.09},
      {"binder": "KL2B494 Fab (binding arm listed in Table 39 for hK2/CD3 bispecific antibodies) (bispecific antibody, V domains shown) VH: QVQLVESGGGLVQPGGSLRLSCAASGFTFSHYAMSWVRQAPGKGLEWVSTIGGSGGSTYYADSVKGRFTISRDNSKNTLYLQMNSLRAEDTAVYYCAKPHIVMVTALLYDGMDVWGQGTMVTVSS VL: SSELTQPPSVSVAPGQTARITCGGNNIGSKSVHWYQQKPGQAPVLVVYDDSDRPSGIPERFSGSNSGNTATLTISRVEAGDEADYYCQVWDSSSDHVVFGGGTKLTVL", "Kd": 0.06},
      {"binder": "KL2B30 Fab arm of an hK2/CD3 bispecific antibody (Table 39) (bispecific antibody) chain 1: QVQLQESGPGLVKPSETLSLTCTVSGGSISSYYWSWIRQPPGKGLEWIGYIYYSGSTNYNPSLKSRVTISVDTSKNQFSLKLSSVTAADTAVYYCAGTTIFGVVTPNFYYGMDVWGQGTTVTVSSASTKGPSVFPLAPSSKSTSGGTAALGCLVKDYFPEPVTVSWNSGALTSGVHTFPAVLQSSGLYSLSSVVTVPSSSLGTQTYICNVNHKPSNTKVDKKVEPKSCDKTHTCPPCPAPEAAGGPSVFLFPPKPKDTLMISRTPEVTCVVVSVSHEDPEVKFNWYVDGVEVHNAKTKPREEQYNSTYRVVSVLTVLHQDWLNGKEYKCKVSNKALPAPIEKTISKAKGQPREPQVYVLPPSREEMTKNQVSLLCLVKGFYPSDIAVEWESNGQPENNYLTWPPVLDSDGSFFLYSKLTVDKSRWQQGNVFSCSVMHEALHNHYTQKSLSLSPG chain 2: DIQMTQSPSFLSASVGDRVTITCRASQGISSYLAWYQQKPGKAPKFLIYAASTLQSGVPSRFSGSGSGTEFTLTISSLQPEDFATYYCQQLNSYPLTFGGGTKVEIKRTVAAPSVFIFPPSDEQLKSGTASVVCLLNNFYPREAKVQWKVDNALQSGNSQESVTEQDSKDSTYSLSSTLTLSKADYEKHKVYACEVTHQGLSSPVTKSFNRGEC chain 3: DIQMTQSPSSLSASVGDRVTITCRARQSIGTAIHWYQQKPGKAPKLLIKYASESISGVPSRFSGSGSGTDFTLTISSLQPEDFATYYCQQSGSWPYTFGQGTKLEIKGGSEGKSSGSGSESKSTGGSEVQLVESGGGLVKPGGSLRLSCAASGFTFSRYNMNWVRQAPGKGLEWVSSISTSSNYIYYADSVKGRFTFSRDNAKNSLDLQMSGLRAEDTAIYYCTRGWGPFDYWGQGTLVTVSSEPKSSDKTHTCPPCPAPEAAGGPSVFLFPPKPKDTLMISRTPEVTCVVVSVSHEDPEVKFNWYVDGVEVHNAKTKPREEQYNSTYRVVSVLTVLHQDWLNGKEYKCKVSNKALPAPIEKTISKAKGQPREPQVYVYPPSREEMTKNQVSLTCLVKGFYPSDIAVEWESNGQPENNYKTTPPVLDSDGSFALVSKLTVDKSRWQQGNVFSCSVMHEALHNHYTQKSLSLSPG", "Kd": 2},
      {"binder": "KL2B53 Fab arm of an hK2/CD3 bispecific antibody (Table 39) (bispecific antibody) chain 1: EVQLVESGGGVVQPGRSLRLSCVASGFTFSSYDIHWVRQAPGKGLEWVAIISYDGSKKDYTDSVKGRFTISRDNSKNTLYLQMDSLRVEDSAVYSCARESGWSHYYYYGMDVWGQGTMVTVSSASTKGPSVFPLAPSSKSTSGGTAALGCLVKDYFPEPVTVSWNSGALTSGVHTFPAVLQSSGLYSLSSVVTVPSSSLGTQTYICNVNHKPSNTKVDKKVEPKSCDKTHTCPPCPAPEAAGGPSVFLFPPKPKDTLMISRTPEVTCVVVSVSHEDPEVKFNWYVDGVEVHNAKTKPREEQYNSTYRVVSVLTVLHQDWLNGKEYKCKVSNKALPAPIEKTISKAKGQPREPQVYVLPPSREEMTKNQVSLLCLVKGFYPSDIAVEWESNGQPENNYLTWPPVLDSDGSFFLYSKLTVDKSRWQQGNVFSCSVMHEALHNHYTQKSLSLSPG chain 2: DIVMTQSPSSLSASVGDRVTITCRASQDISNYLAWYQQKPGKVPKFLIYAASTLHSGVPSRFSGSGSGTDFTLTISSLQPEDVATYYCQKYNSAPYTFGQGTRLEIKRTVAAPSVFIFPPSDEQLKSGTASVVCLLNNFYPREAKVQWKVDNALQSGNSQESVTEQDSKDSTYSLSSTLTLSKADYEKHKVYACEVTHQGLSSPVTKSFNRGEC chain 3: DIQMTQSPSSLSASVGDRVTITCRARQSIGTAIHWYQQKPGKAPKLLIKYASESISGVPSRFSGSGSGTDFTLTISSLQPEDFATYYCQQSGSWPYTFGQGTKLEIKGGSEGKSSGSGSESKSTGGSEVQLVESGGGLVKPGGSLRLSCAASGFTFSRYNMNWVRQAPGKGLEWVSSISTSSNYIYYADSVKGRFTFSRDNAKNSLDLQMSGLRAEDTAIYYCTRGWGPFDYWGQGTLVTVSSEPKSSDKTHTCPPCPAPEAAGGPSVFLFPPKPKDTLMISRTPEVTCVVVSVSHEDPEVKFNWYVDGVEVHNAKTKPREEQYNSTYRVVSVLTVLHQDWLNGKEYKCKVSNKALPAPIEKTISKAKGQPREPQVYVYPPSREEMTKNQVSLTCLVKGFYPSDIAVEWESNGQPENNYKTTPPVLDSDGSFALVSKLTVDKSRWQQGNVFSCSVMHEALHNHYTQKSLSLSPG", "Kd": 0.1}
    ]},
    {"biological_target": "T1, kallikrein related peptidase 2 (hK2), …", "test": "flow cytometry, primary human T cells transduced with the CAR lentivirus (MOI 3), biotinylated hK2 (1 ug/ml) then streptavidin-PE, 14 days after transduction; UTD gate 0.086 [contd]", "units": {"% of cells in the hK2CAR+ CD3+ gate": "%"}, "values": [
      {"binder": "CAR4 (HL_HCG5_LCB7_20AA) (other, Chimeric antigen receptor on JNL cells or primary human T cells; also called hK2 CAR; pDR000083437) QVQLQESGPGLVKPSDTLSLTCAVSGNSITSDYAWNWIRQFPGKGLEWMGYISYSGSTTYNPSLKSRVTISRDTSKNQFSLKLSSVTPVDTAVYYCATGYYYGSGFWGQGTLVTVSSGGSEGKSSGSGSESKSTGGSDIVLTQSPDSLAVSLGERATINCKASESVEYFGTSLMHWYQQKPGQPPKLLIYAASNRESGVPDRFSGSGSGTDFTLTISSVQAEDVAVYYCQQTRKVPYTFGQGTKLEIKTSTPAPRPPTPAPTIASQPLSLRPEACRPAAGGAVHTRGLDFACDIYIWAPLAGTCGVLLLSLVITLYCKRGRKKLLYIFKQPFMRPVQTTQEEDGCSCRFPEEEEGGCELRVKFSRSADAPAYKQGQNQLYNELNLGRREEYDVLDKRRGRDPEMGGKPRRKNPQEGLYNELQKDKMAEAYSEIGMKGERRRGKGHDGLYQGLSTATKDTYDALHMQALPPR", "% of cells in the hK2CAR+ CD3+ gate": 42.7},
      {"binder": "CAR3 (HL_HCF3_LCB7_20AA) (other, Chimeric antigen receptor on JNL cells or primary human T cells; also called hK2 CAR; pDR000083436) QVQLQESGPGLVKPSDTLSLTCAVSGNSITSDYAWNWIRQFPGKGLEWIGYISYSGSTTYNPSLKSRVTISRDTSKNQFSLKLSSVTPVDTAVYYCATGYYYGSGFWGQGTLVTVSSGGSEGKSSGSGSESKSTGGSDIVLTQSPDSLAVSLGERATINCKASESVEYFGTSLMHWYQQKPGQPPKLLIYAASNRESGVPDRFSGSGSGTDFTLTISSVQAEDVAVYYCQQTRKVPYTFGQGTKLEIKTSTPAPRPPTPAPTIASQPLSLRPEACRPAAGGAVHTRGLDFACDIYIWAPLAGTCGVLLLSLVITLYCKRGRKKLLYIFKQPFMRPVQTTQEEDGCSCRFPEEEEGGCELRVKFSRSADAPAYKQGQNQLYNELNLGRREEYDVLDKRRGRDPEMGGKPRRKNPQEGLYNELQKDKMAEAYSEIGMKGERRRGKGHDGLYQGLSTATKDTYDALHMQALPPR", "% of cells in the hK2CAR+ CD3+ gate": 29.4},
      {"binder": "CAR8 (LH_LCB7_HCF3_20AA) (other, Chimeric antigen receptor on JNL cells or primary human T cells; also called hK2 CAR; pDR000083443) DIVLTQSPDSLAVSLGERATINCKASESVEYFGTSLMHWYQQKPGQPPKLLIYAASNRESGVPDRFSGSGSGTDFTLTISSVQAEDVAVYYCQQTRKVPYTFGQGTKLEIKGGSEGKSSGSGSESKSTGGSQVQLQESGPGLVKPSDTLSLTCAVSGNSITSDYAWNWIRQFPGKGLEWIGYISYSGSTTYNPSLKSRVTISRDTSKNQFSLKLSSVTPVDTAVYYCATGYYYGSGFWGQGTLVTVSSTSTPAPRPPTPAPTIASQPLSLRPEACRPAAGGAVHTRGLDFACDIYIWAPLAGTCGVLLLSLVITLYCKRGRKKLLYIFKQPFMRPVQTTQEEDGCSCRFPEEEEGGCELRVKFSRSADAPAYKQGQNQLYNELNLGRREEYDVLDKRRGRDPEMGGKPRRKNPQEGLYNELQKDKMAEAYSEIGMKGERRRGKGHDGLYQGLSTATKDTYDALHMQALPPR", "% of cells in the hK2CAR+ CD3+ gate": 21.5},
      {"binder": "CAR9 (LH_LCB7_HCG5_20AA) (other, Chimeric antigen receptor on JNL cells or primary human T cells; also called hK2 CAR; pDR000083444) DIVLTQSPDSLAVSLGERATINCKASESVEYFGTSLMHWYQQKPGQPPKLLIYAASNRESGVPDRFSGSGSGTDFTLTISSVQAEDVAVYYCQQTRKVPYTFGQGTKLEIKGGSEGKSSGSGSESKSTGGSQVQLQESGPGLVKPSDTLSLTCAVSGNSITSDYAWNWIRQFPGKGLEWMGYISYSGSTTYNPSLKSRVTISRDTSKNQFSLKLSSVTPVDTAVYYCATGYYYGSGFWGQGTLVTVSSTSTPAPRPPTPAPTIASQPLSLRPEACRPAAGGAVHTRGLDFACDIYIWAPLAGTCGVLLLSLVITLYCKRGRKKLLYIFKQPFMRPVQTTQEEDGCSCRFPEEEEGGCELRVKFSRSADAPAYKQGQNQLYNELNLGRREEYDVLDKRRGRDPEMGGKPRRKNPQEGLYNELQKDKMAEAYSEIGMKGERRRGKGHDGLYQGLSTATKDTYDALHMQALPPR", "% of cells in the hK2CAR+ CD3+ gate": 30.6}
    ]}
  ]
}
